T1: human Protein S (plasma derived) (human, UniProt P07225 42-676)
T1 construct: Bought plasma-derived human Protein S (Haematologic Technologies or Enzyme Research Laboratories); also called Plasma PS; free Protein S
T1 sequence: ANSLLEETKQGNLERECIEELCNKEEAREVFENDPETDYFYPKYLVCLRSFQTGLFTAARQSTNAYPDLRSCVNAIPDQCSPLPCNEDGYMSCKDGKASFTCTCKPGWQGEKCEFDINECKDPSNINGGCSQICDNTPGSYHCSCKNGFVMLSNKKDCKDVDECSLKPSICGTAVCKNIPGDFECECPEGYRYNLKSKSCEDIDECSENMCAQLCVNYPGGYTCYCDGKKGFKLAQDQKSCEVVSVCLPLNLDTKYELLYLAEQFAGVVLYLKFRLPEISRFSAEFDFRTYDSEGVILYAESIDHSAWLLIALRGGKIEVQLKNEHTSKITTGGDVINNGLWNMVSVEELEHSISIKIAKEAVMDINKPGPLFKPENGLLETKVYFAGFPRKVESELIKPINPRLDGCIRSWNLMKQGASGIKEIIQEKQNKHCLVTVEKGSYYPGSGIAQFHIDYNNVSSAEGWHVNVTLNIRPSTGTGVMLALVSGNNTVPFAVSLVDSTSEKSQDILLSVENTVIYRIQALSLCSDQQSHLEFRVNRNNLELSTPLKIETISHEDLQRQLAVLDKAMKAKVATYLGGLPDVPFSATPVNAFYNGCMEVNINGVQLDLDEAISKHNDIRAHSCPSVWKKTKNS

T2: EGF domain 3 and 4 of recombinant human Protein S (human, UniProt P07225 201-286, limits assumed)
T2 construct: domain: EGF domain 3 and 4; also called hEGF3-4
T2 sequence (looked up): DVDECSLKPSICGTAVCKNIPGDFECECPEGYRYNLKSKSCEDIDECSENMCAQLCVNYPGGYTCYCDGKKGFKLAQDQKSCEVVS

T3: Gla-domain deleted recombinant human Protein S (human, UniProt P07225 114-676)
T3 construct: also called hPS-dGla; desGla human Protein S
T3 sequence: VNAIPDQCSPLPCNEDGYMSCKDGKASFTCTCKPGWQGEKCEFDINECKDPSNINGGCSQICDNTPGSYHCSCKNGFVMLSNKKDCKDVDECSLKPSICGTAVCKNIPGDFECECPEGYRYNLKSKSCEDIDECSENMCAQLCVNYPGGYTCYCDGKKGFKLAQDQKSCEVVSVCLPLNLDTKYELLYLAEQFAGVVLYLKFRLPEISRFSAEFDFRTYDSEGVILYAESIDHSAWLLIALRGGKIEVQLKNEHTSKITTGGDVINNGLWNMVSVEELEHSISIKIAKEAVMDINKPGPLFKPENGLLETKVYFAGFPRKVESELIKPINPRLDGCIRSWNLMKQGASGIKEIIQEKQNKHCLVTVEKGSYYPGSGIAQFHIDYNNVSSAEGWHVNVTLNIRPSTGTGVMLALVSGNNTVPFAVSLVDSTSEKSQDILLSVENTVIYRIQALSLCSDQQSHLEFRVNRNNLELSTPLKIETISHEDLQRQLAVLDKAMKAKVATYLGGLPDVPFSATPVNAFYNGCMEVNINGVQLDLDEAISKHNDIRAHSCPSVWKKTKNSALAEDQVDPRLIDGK

T4: EGF1-4 domains of human Protein S with C-terminal HPC4 tag (human, UniProt P07225 114-286, partial hydroxylation of Asn or Asp in the EGF domains (detected by MS))
T4 construct: also called hEGF1-4; human Protein S EGF1-4
T4 sequence: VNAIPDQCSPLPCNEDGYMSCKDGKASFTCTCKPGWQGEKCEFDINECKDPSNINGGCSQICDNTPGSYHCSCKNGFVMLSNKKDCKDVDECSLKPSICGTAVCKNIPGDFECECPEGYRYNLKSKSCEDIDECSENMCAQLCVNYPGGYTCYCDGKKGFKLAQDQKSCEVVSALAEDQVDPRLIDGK

T5: EGF domain 1 and 2 of recombinant human Protein S (human, UniProt P07225 114-200, limits assumed)
T5 construct: domain: EGF domain 1 and 2; also called hEGF1-2
T5 sequence (looked up): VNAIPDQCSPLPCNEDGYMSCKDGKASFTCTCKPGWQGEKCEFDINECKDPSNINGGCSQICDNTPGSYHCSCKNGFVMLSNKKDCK

B1: M-hProtS-2F188A1 monoclonal antibody (antibody, mouse IgG1, V domains shown)
VH: QVQLQQPGAELVRPGTSVKLSCKASGYTVTSYWMNWIKQRPEQGLEWIGRIDPNDSETLYNQKFKDKVILTVDKSSSTVYIQLSSLTSEDSAVYYCARWAGSGYAMDYWGQGTSVTVSS
VL: QIVLTQSPALLSASPGEKVTMTCSASSSVSYMYWYQQKPGSSPKPWIYVTSNLASGVPARFSGSGSGTSYSLTISSMEAEDAATYYCHQWSSDPYTFGGGTKLEIRR
notes: Purified from hybridoma supernatant; mouse IgG1, kappa
B2: M-hProtS-2F382A1 monoclonal antibody (antibody, mouse IgG1, V domains shown)
VH: EVKLEESGGGLVQPGGSMKLSCAASGFTFSDAWMGWVRQSPEKGLEWVAEIRGKANNHATYYSESVKGRFTISRDDSKSSVYLQMNSLRAEDTGIFYCCLITAFLFDYWGQGTTLTVSS
VL: QIVLTQSPAIMSASPGEKVTMTCSGRSSENYMYWYQQKPGSPPRLWIYDTSNLVSGVPARFSGSRSGTSYSLTISSMEAEDAATYYCQQFNGYPYTFGGGTKLEIRR
notes: as for B1
B3: M-hProtS-2F380A1 monoclonal antibody (antibody, mouse IgG1, V domains shown)
VH: EVKLEESGGGLVQPGGSMKLSCAASGFTFSDAWMDWVRQSPEKGLEWVAEVRSKADNHATYYAESVKGRFTISRDDSKSAVYLQMNSLRPEDTGIYYCTLTTAFLFDSWGQGTTLTVSS
VL: QIALTQSPAIMSASPGEKVTMTCSVNSSVSYMHWYQQKPGSSPRLWIYDTSNLVSGVPGRFSGSGSGTSYSLTLSSMEAEDAATYYCQQYSGYLYTFGGGTKLEIKR
notes: as for B1
B4: M-hProtS-3F38A2 monoclonal antibody (antibody, mouse IgG1, V domains shown)
VH: EVLLQQSGPELVKPGASVKIPCKASGYTFTDYNMDWVKQSHGKSLEWIGDINPNNGDTFYNQKFKGKATLTVDKSSSTAYMELRSLTSEDTAVYYCARSEIFTTAPDYGMGYWGQGTSVTVSS
VL: ENVLTQSPAIMSASPGEKVTMTCRASSSVSSSYLHWYQQRSGASPKLWIYGTSNLASGVPARFSGSGSGTSYSLTISSVEAEDAATYYCQQYSGYPRTFGGGTKLEIKR
notes: as for B1
B5: M-hProtS-3F62A5 monoclonal antibody (antibody, mouse IgG1, V domains shown)
VH: EVLLQQSGPELVKPGASVKITCKASGYTFTDYNMDWVKQSHGKSLEWIGDIDPNNGGTIYNQEFTGKATLTVDTSSSTAYMELRSLTSEDTAVYYCVRSEIFTTAPDYGVDYWGQGTSVTVSS
VL: ENVLTQSPAIMSASPGEKVTMTCRASSSVSSSYLHWYRQKSGASPKLWIYSTSNLASGVPARFSGSGSGTSYSLTISRVEAEDAATYYCQQYSGYPRTFGGGTKVEIKR
notes: as for B1
B6: M-hProtS-6F120A1 monoclonal antibody (antibody, mouse IgG1, V domains shown)
VH: EIQLQQSGPELVKPGASVKVSCKASGYSFTDYNMYWVKQSHGKSLEWIGYIDPYNGGTSYNQKFKGKATLTVDKSSSTAFMHLNSLTSEDSAVYYCARERDYWYFDVRGAGTTVTVSS
VL: DIVLTQSPASLAVSLGQRATISCRASKSVSASGYSYMHWYQQKPGQPPKLLIYLASNLESGVPARFSGSGSGTDFTLNIHPVEEEDAATYYCQHSRELPLTFGAGTKLELKR
notes: as for B1
B7: M-hProtS-6F128A2 monoclonal antibody (antibody, mouse IgG1, V domains shown)
VL: SIVMTQTPKFLLVSAGDRVTITCKASQSVSNDVAWYQQKPGQSPKLLIYYASNRYTGVPDRFTGSGYGTDFTFTISTVQAEDLAVYFCQQDYSSPYTFGGGTKLEIKR
V domain: QVQLQQPGAELVRPGASVKLSCKASGYTFTSYWINWVKQRPEQGLEWIGRIDPYDSETHYNQKFKDKAILTVDKSSSTAYMQLSSLTSEDSAVYYCARWGGSGYAMDYWGQGTSATVSS
notes: Tested as antibody purified from hybridoma supernatant; mouse IgG1, kappa
B8: M-hProtS-6F151A2 monoclonal antibody (antibody, mouse IgG1, V domains shown)
VH: EVQLQQSGAELVRSGASVKLSCTASGFNIKDNYIHWVKQRPEQGLEWIGWIDPENGDTEYAPKFQGKATMTADTSSNTAYLQLSSLTSEDTAVYYCSAYGAAYWGQGTLVTVSA
VL: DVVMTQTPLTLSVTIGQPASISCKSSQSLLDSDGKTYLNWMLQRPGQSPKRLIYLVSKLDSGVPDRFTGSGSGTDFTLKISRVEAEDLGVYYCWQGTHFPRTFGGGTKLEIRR
notes: as for B1
B9: M-hProtS-6F153A2 monoclonal antibody (antibody, mouse IgG1, V domains shown)
VH: QIQLVQSGPELKKPGETVKISCKASGYTFSDYSMHWVKQTPGEGLKWMGWMNTGTGEPTYADDFKGRFAFSLETSATTAHLQINNLKNEDTATYFCARRLYYGTGLAYWGQGTLVTVSA
VL: DIVMTQSHKFMSTSVGDRVSITCKASQDVSTGVAWYQQKPGQSPKLLIFSASSRYSGVPDRFTGSGSGTDFTFTISSVQAEDLAVYYCQQHYSSPRTFGGGTKLEIKR
notes: as for B7
B10: M-hProtS-6F206A1 monoclonal antibody (antibody, mouse IgG1, V domains shown)
VH: QVQLQQSGAEMVRPGSSVKISCKASGYAFSSHWMNWVKQRPGQGLEWIGQIYPGDGDTNYNGKFRGKAIVTADTSSSTAYLQLSSLTSEDTAVFFCAPGYHGTSYWFAYWGQGTLVTVSA
VL: DIQMSQSPSSLSASLGDTVTITCHASQNINIWLSWYQQKPGNILTLLIYKASNLYTGVPSRFSGSGSGTDFTLTISSLQPEDIATYYCQQGQSFPLTFGTGTRLELKR
notes: as for B1
B11: M-hProtS-6F265A1 monoclonal antibody (antibody, mouse IgG1, V domains shown)
VH: QVQLKESGPGLVAPSQSLSITCTVSGFSLTSYGVHWVRQPPGKGLGWLGVIWAGGRTDYNSALMSRLSISKDNSKSQVFLKMNSLQTDDTAIYYCARDYGNYNYAMDYWGQGISVTVSS
VL: ETTVTQSPASLSMAIGEKVTIRCITSTDIDDDVNWYQQKPGEPPKLLISEGNILRPGVPSRFSSSGYGTDFVFSIENMLSEDVGDYYCLQSDTLPTFGGGTKLEIKR
notes: as for B7
B12: M-hProtS-6F216A3 (mAb 0914) monoclonal antibody (antibody, V domains shown)
VH: QVQLQQPGAELVRPGASVKLSCKASGYTFTSYWINWVKQRPEQGLEWIGRIDPYDSETHYNQKFKDKAILTVDKSSSTAYMQLSSLTSEDSAVYYCARWGGSGYAMDYWGQGTSVTVSS
VL: QIVLSQSPAILSASPGEKVTMTCRASSSVSYMYWYQQKPGSSPKPWIYATSNLASGVPARFSGSGSGTSYSLTISRVEAEDAATYYCQQWSSIPPTFGGGTKLEIKR
notes: Mouse IgG1, kappa

Assays:
Test in all cases: ELISA, calcium-free TBS;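 further: binding of mouse antibodies detected by ELISA with an HRP-conjugated goat anti-mouse IgG secondary and TMB substrate development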
[1] = target: T1, human Protein S (plasma derived)
Experimental: (§1) After incubation and washing a HRP-labelled goat-anti-mouse IgG secondary antibody (Jackson) was added and the ELISA was developed after incubation and wash by addition of 3,3′,5,5′-Tetramethylbenzidine.

[2] = target: T2, EGF domain 3 and 4 of recombinant human …
Experimental: as §1

[3] = target: T3, Gla-domain deleted recombinant human …
Experimental: as §1

[4] = target: T4, EGF1-4 domains of human Protein S with …
Experimental: as §1

[5] = target: T5, EGF domain 1 and 2 of recombinant human …
Experimental: as §1

Binder | binding result [1] | binding result [2] | binding result [3] | binding result [4] | binding result [5]
B1 | binds | no binding | binds | binds | 
B2 | binds | no binding | binds | binds | 
B3 | binds | no binding | binds | binds | 
B4 | binds | no binding | binds | binds | no binding
B5 | binds | no binding | binds | binds | no binding
B6 | binds | no binding | binds | binds | no binding
B7 | binds | no binding | binds | binds | 
B8 | binds | no binding | binds | binds | 
B9 | binds | no binding | binds | binds | no binding
B10 | binds | no binding | binds | binds | 
B11 |  | no binding | binds | binds | 
B12 |  | no binding |  |  | 

Source: US20160297892A1 (Novo Nordisk, published 2016)
